The target of the test is T161 phosphorylated CDK1 (full-length human CDK1) (human, UniProt P06493 1-297, phosphothreonine at T161). The test can be described thus: SEC. (In gel filtration, larger molecules generally elute earlier.)

B1: Human cyclin B1, residues 165-433 carrying the C167S/C238S/C350S mutations (domain or fragment)
chain: NLSSEYVKDIYAYLRQLEEEQAVRPKYLLGREVTGNMRAILIDWLVQVQMKFRLLQETMYMTVSIIDRFMQNNSVPKKMLQLVGVTAMFIASKYEEMYPPEIGDFAFVTDNTYTKHQIRQMEMKILRALNFGLGRPLPLHFLRRASKIGEVDVEQHTLAKYLMELTMLDYDMVHFPPSQIAAGAFSLALKILDNGEWTPTLQHYLSYTEESLLPVMQHLAKNVVMVNQGLTKHMTVKNKYATSKHAKISTLPQLNSALVQDLAKAVAKV
As to B1, the binding result is on record as “binds”.

The record behind these values is article doi:10.1101/2022.05.24.493195 (bioRxiv, 2022).
